This is an account of results in the DeepSol protein solubility set.

A short description of the series: soluble on expression in E. coli; label from the status in PepcDB or PDB records.
As to “MAHHHHHHMQRMRRIGREEEAARLVWNHVSHCSSALLRQCIRRPNLLEEVTVALCRTMHRGISGRKDSWMGHRSLAVLRSGAALRQFTPALCIPLCAAALDCGVHFATVQQHVAEIYRWDERTERWVLNMVRLIADCHSALMRVPLNCSLHSSYMRGLVQRVAYELPTLSSTCSIEVQVPSRNKLLALWTIVNDDVANGRLRQLTCQLFLDPVARSAFKEMRLADEVDNCNSGTDGGGGSKCRVPRSTLKGLLNEEVFVSVAVNCTTEHAFAIFMNAFLSTRQARDKLRYMHLVLSEMPFESTDICPRCTTETGNCEVS”, the “soluble on expression in E. coli” value was “not soluble”.

As for “SYMYDRDGSLVSEIVSDHENRVLVPFNKIPEEVKQIFLTSEDRHFYEHKGFDFMGMVPPTASNVKDKKIDQGASTITQQLSRNLYLSHERSFSRKLTELAYSYQLEKKYTKNEILEAYLNTIYFNNGVYGVGSAAQFYFSKPLKSLTVGEMAFICAIPNNPTLYDPLKHF”, the “soluble on expression in E. coli” value is recorded as “not soluble”.

Consider “MKTKIIGVLGLGIFGQTLAQELSNFEQDVIAIDSNPENVQAVAEVVTKAAIGDITDLAFLKHIGISDCDTVIIATGNSLESSVLAVMHCKKLGVPQVIAKARNLVYEEVLYEIGADLVISPERESGQNVAANLMRNKITDVFQIESDISVIEFKIPKSWVGKTVEQLNIRHKFDLNLIGIRKAKNKPVDTEVPINSPLEEGIILVAIANSDAFQRYDYLGYFNLEHHHHHH”, for which the “soluble on expression in E. coli” value is recorded as “soluble”.

Take “HHHGIRMTRISREMMKELLSVYFIMGSNNTKADPVTVVQKALKGGATLYQFREKGGDALTGEARIKFAEKAQAACREAGVPFIVNDDVELALNLKADGIHIGQEDANAKEVRAAIGDMILGVAAHTMSEVKQAEEDGADYVGLGPIYPTETKKDTRAVQGVSLIEAVRRQGISIPIVGIGGITIDNAAPVIQAGADGVSMISAISQAEDPESAARKFREEIQTYKTGR”: the “soluble on expression in E. coli” value is “soluble”.

As to “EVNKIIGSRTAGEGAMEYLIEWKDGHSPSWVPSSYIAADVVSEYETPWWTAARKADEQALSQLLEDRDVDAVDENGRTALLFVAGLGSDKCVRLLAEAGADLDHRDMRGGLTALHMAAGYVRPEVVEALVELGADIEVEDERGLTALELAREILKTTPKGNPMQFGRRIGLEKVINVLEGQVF”, the “soluble on expression in E. coli” value was “soluble”.

Take “MAKYQTIEAAVRSEFGKGSARRARVAGQIPAVVYGADVESNLHVTIDHRTFAALVRQEGVNAVLELDIEGQKQLTMIKHIDQNVLTFHIDHLDLLAI”: the “soluble on expression in E. coli” value is reported as “not soluble”.

Take “GSHMSSGYPGVSWNKRMCAWLAFFYDGASRRSRTFHPKHFNMDKEKARLAAVEFMKTVENNGRKKLEPGGSQFIVTD”: the “soluble on expression in E. coli” value was “soluble”.

As for “MRRSAAPSQLQGNSFKKPKFIPPGRSNPGLNEEITKLNPDIKLFEGVAINNTFLPSQNDLRICSLNLPSEESTREINNRDNCSGKYCFEAPTLATLDPPHTVHSAPKEVAVSKEQEEKSDSLVKYFSVVWCKPSKKKHKKWEGDAVLIVKGKSFILKNLEGKDIGRGIGYKFKELEKIEEGQTLMICGKEIEVMGVISPDDFSSGRCFQLGGGSTAISHSSQVARKCFSNPFKSVCKPSSKENRQNDFQNCKPRHDPYTPNSLVMPRPDKNHQWVFNKNCFPLVDVVIDPYLVYHLRPHQKEGIIFLYECVMGMRMNGRCGAILADEMGLGKTLQCISLIWTLQCQGPYGGKPVIKKTLIVTPGSLVNNWKKEFQKWLGSERIKIFTVDQDHKVEEFIKSIFYSVLIISYEMLLRSLDQIKNIKFDLLICDEGHRLKNSAIKTTTALISLSCEKRIILTGTPIQNDLQEFFALIDFVNPGILGSLSSYRKIYEEPIILSREPSASEEEKELGERRAAELTCLTGLFILRRTQEIINKYLPPKIENVVFCRPGALQIELYRKLLNSQVVRFCLQGLLENSPHLICIGALKKLCNHPCLLFNSIKEKECSSTCDKNEEKSLYKGLLSVFPADYNPLLFTEKESGKLQVLSKLLAVIHELRPTEKVVLVSNYTQTLNILQEVCKRHGYAYTRLDGQTPISQRQQIVDGFNSQHSSFFIFLLSSKAGGVGLNLIGGSHLILYDIDWNPATDIQAMSRVWRDGQKYPVHIYRLLTTGTIEEKIYQRQISKQGLCGAVVDLTKTSEHIQFSVEELKNLFTLHESSDCVTHDLLDCECTGEEVHTGDSLEKFIVSRDCQLGPHHQKSNSLKPLSMSQLKQWKHFSGDHLNLTDPFLERITENVSFIFQNITTQATGT”, the “soluble on expression in E. coli” value is given as “soluble”.

Take “MVPELKQISRVEAMRLGPGWSHSCHAMLYAANPGQLFGRIPMRFSVLMQMRFDGLLGFPGGFVDRRFWSLEDGLNRVLGLGLGCLRLTEADYLSSHLTEGPHRVVAHLYARQLTLEQLHAVEISAVHSRDHGLEVLGLVRVPLYTQKDRVGGFPNFLSNAFVSTAKCQLLFALKVLNMMPEEKLVEALAAATEKQKKALEKLLPASSAHHHHHH”: the “soluble on expression in E. coli” value is recorded as “soluble”.

For the sequence “YGAWAAQELQAKLAEIGAPIQGNREELVERLQSYTRQTGIVLNRP”, the “soluble on expression in E. coli” value is “soluble”.

On to “MFKFLMIISMSKHIKRAAKNREDLLEAAVEMFKTHGMMVPLQVIIDHANVGRATFYRNFADRKMLVYALLEQSLVKLKQRTQLYQTYPDGLIRLIQSHVNHLNHLSALMEYWRVLDYSDTSLQALIQQHQRIIQPLIDQAILHKVCRPDFNFEDYRSIVTMLSSSFRGHTEQEQIRMASRVIDLLLNGICLNQEESHG”, for which the “soluble on expression in E. coli” value is “not soluble”.

As for “MIVRGGGDLATGVIQKLWHVGFKILVLETECPLAIRRTVSVCDAIFQKEQRVEDLVAVRITSLKDCAKCWQQNKLPVFVDQTASAIQQLKPLIVIDAILAKKNLGTHRGMAPITIALGPGFSAPQDVDVVIETMRGHRLGRLYFEGTALPNTGIPGEIGGKSAERVVHAPASGQVTHLKNIGDLVLKGEALFLIDQVPVYSPLTGTLRGLISEKVTCYQGLKCADVDPRPVEKVDCLTISDKARALGGAVLEAIFMIGRRKNVL”, the “soluble on expression in E. coli” value is on record as “not soluble”.

“AHHHHHHGSIHIIEEYFRPYPARKKVAQILWEAGMSVKDGKIYVKGVEVPISGIAQVAGVNRKIVYHTIEYIESKPALKLLFENLSPRTSLISIAPLMGWEVLELTIQKGKYEKTLAKVLESLAERRVRVIEIFGSNPYEEKSKAFLVVEGIVPFEVISSLREEGSLERIVIHTPEKEKERMICPKCEIKYCPRKIFISTR”: the “soluble on expression in E. coli” value is listed as “soluble”.

With “MIETTLTGKTPDIGEENIKKLMTMFPEVVTEGKVDFEKLKQLLGEYVDDSNERYNFTWNGKGRALRLSQTPSLGTLRPCKEESKNWDTTQNLYIEGDNLEVLKLLQKSYYGKIKMIYIDPPYNTGKDFVYRDDFHDSLENYKRITGQVDGNGKAISTNTETSGRYHTDWLNMMYPRLRLARNLLSDDGVIFISIDDNEVDNLKKICNEIFGEDNFIANCVRKRRDSQANLSQNISPIHEYVLIYAKRFGNILNKVTPSLDMGSYKNPDNDPRGPYTTMPCTNVGGAVYSIVTPTGKTITDEWRFKKETFEKLLLDNRIVFPRNGEGKPRYKIFLSEKMAEGVLANTWLDKIASNQEGTREIKELFGGLLFNNPKPTGLLKFLLELGSSKDSIILDFFSGSATTAHAVMQLNAEDGGNRRFIMVQLPEPTDENSEAYKAGYMNISEIGKERIRRAGEKIKEEYKDKGNIENLDIGFKVFKLDTSNIRKWQPDYDNLEQSLMDYVDNFVEGRTELDVVYEIMLKYGLDLTYPVDEFTIAGKKVYSIGYGMLMICLDNEITTEVAKGILTKIKELSPESSRVVFKDNGFKTDSNKTNIKEILKSGGIEEFITI”, the “soluble on expression in E. coli” value is given as “not soluble”.

As for “MSPSPLISHRAASADLAGMVRQARQRILLQGNVPGFDVARQIELLHGLAESELGRFLLLYRGLNAEWTHRLVTHQPGSGALAPLERVFYERLPAVLATRERHGHFRRALQRHLRPGCVVASVPCGWMSELLALDYSACPGVQLVGIDYDPEALDGATRLAAGHALAGQITLHRQDAWKLDTREGYDLLTSNGLNIYEPDDARVTELYRRFWQALKPGGALVTSFLTPPPALSPDSPWDMQAIDPHDLQLQQLVFTRLIQPRWNALRTHAQTRAQLEEAGFTDLRFEDDRARLFPTVIARKPA”, the “soluble on expression in E. coli” value is “soluble”.

As for “MAWALPAQAEQLIYGFQAEQLEYRQGDSEDSFVWDFDALIGTDELKLVWRSEGERVQGAGGFETLENQLRLQFPVSTFFDAVVGVQASTPDGLPDRYNAVLGLKGLAPQWFEIDADLYLSDNSFFRFEGEYEAMLTNRLTLTPSLELTLPLQDDPIYNQAAGGVTLEAGLRLSYDLIDRAVSPYIGVNYERSYGGTADMIRAAGDENGAFSVVFGTRLMFLEHHHHHH”, the “soluble on expression in E. coli” value is “not soluble”.

As for “MSLKTLIKNVHILTMDEQFSEIKAGYLVIEEDTIVELAPMTTLDEKRMAANQVIDGQNGILMPGMINTHTHVGMIPFRSLGDDVPDRLRRFLFPLEQFMTKELVGCSSDYAIAEMLLSGITSFCDMYYFEDEIAKSCEKMSVRALLGETIIDMPTCDSPEPSGGLFYAETFIRKWQGHPLITPMLAPHAPNTNSPEVLAKIIELSRQYQVPVTMHVAEMTYEMAEFEKAYQKTPIAFLEELGYLSEPFILAHCILATDEDLASLAATNGKARVAHCIGANTKSAKGVAPIKQMLDQGIIVGLGTDGPSSGNTLDLFTQMRMVANFHKTAHQDRSLFPAKEIVYLATMGGAKTLGLAEQVGSLEVDKKADITLIETQSVNMFPIFDAYSALVYSANASNVEAVWVNGQQLVANKELQQANLKEIKEKLYQAMNTFVKEAKKRAALEGHHHHHH”, the “soluble on expression in E. coli” value is “soluble”.

With “TLTTTPNQLTDGLEKSLRPLNKIHVPVHEIAMMMSIALRFIPILLEETDKIMKAQIARGADFENGNLIQKVKNMVPLLVPLFISAFRRANDLAMAMEARCYHGGDNRTQMKPLKYKKRD”, the “soluble on expression in E. coli” value is reported as “not soluble”.

For “MGSDKIHHHHHHMLRLFQRKSAVLPPVAAVTETALSKGLLQPKPAAELLATPRRQKLLEHIWQRTSLSRKQFHTLYRVPLERYADLVQQFPASESHHHAYLGGMLDHGLEIVAFALKLRQSHLLPAGASPEDQAAQAEAWTAAVAYAALLHDIGKIAVDLHVELQGGRIWHPWHGPLSQPYRFRHREGREYRLHGAATGLLYSRILDSAALDWLSGYPALWSQLLYVLSGQYEHADMLGELVVQADRASVAQELGGDPAKVMAAPKHALQRKLLEGLRYLLKEQLKLNQPEASDGWLTEDALWLVSKTVSDKLRAHLLSQGIDGIPASNSAVFNVLQEHSMLQLTCPHRPYQ”, the “soluble on expression in E. coli” value is reported as “not soluble”.

Take “MGSDKIHHHHHHMKLGVNLCFAVKRWLEPDRLAGLVRDDLGLEYVQYTYDLTDPWWPDIERDRRAIAYAKAFRKAGLTIESTFGGLASYTYNHFLAPTLELQSLGYQHLKRAIDMTAAMEVPATGMPFGSYSAADALNPARREEIYAIARDMWIELAAYAKRQGLSMLYVEPVPLATEFPSSAADAARLMADLDGRTEIPVRLLVDWGHALFEPLFGPEADMDHWMDLCQPWIAAYHIQQTDGQLDRHWSFTQPGVVTPQRLQDFWDKYALTDQTFFAEILYPFEARDEDVLADMIASVKALKAASPAA”: the “soluble on expression in E. coli” value is on record as “not soluble”.

Take “MSEEIKPSAPDAPTASPIVTRDEQNLVVSFLQFIRQKVSQNQATAEQAEALEVAIQCLEHSFGLDDASYAFQPSRPILELFKSAEGLPEGESALPTPSDSDISQANKLKEEGNDLMKASQFEAAVQKYNAAIKLNRDPVYFCNRAAAYCRLEQYDLAIQDCRTALALDPSYSKAWGRMGLAYSCQNRYEHAAEAYKKALELEPNQESYKNNLKIAEDKLKELESSRPAPGANPLAGLLGAMGGGPGGMPAMPGMPNMQNLMNEPGLMQAASQMMSDPALSDMFNNMMSGNGSIADLMAAGQQMAARMQETNPELIENLRRQFGPGADGGAPPPNPPQ”: the “soluble on expression in E. coli” value is “not soluble”.
